The results in this text go back to patent publication US20150064184A1.

Assay [1] concerns the target human insulin receptor extracellular domain (HIR ECD) (human) (UniProt P06213). Kind of assay: ELISA, HIR ECD plated (second experiment).
Assay [2] has the same target. Kind of assay: ELISA, HIR ECD plated; compared with the HIR Ab. In general terms: In an ELISA, binding on a coated surface is turned into a signal by an enzyme label.

On to “GUSB-HIR Ab fusion protein (human GUSB fused to the amino terminus of the HIR Ab heavy chain) (from UniProt P08236 23-633) (antibody)”, for which the EC50 (in general, the concentration giving half of the maximal effect) in assay [1] is 4.8 nM. The reduction in receptor binding affinity against the HIR Ab in assay [2] was 95%.
